Numbering of substitutions follows the chain as printed.

Assay [1] deals with T1, full-length S396A 2N/4R human tau phosphorylated in vitro with GSK3β (human, UniProt P10636 2-758, phosphorylated in vitro with GSK3β; sites not stated).
T1 construct: Recombinant, E. coli BL21; also called S396A tau
Description: immunoblot, recombinant tau phosphorylated in vitro. How it is done:
(§1) Tau proteins (0.2 mg/ml) were phosphorylated with either glycogen synthase kinase 3β (GSK3β; 2.5 U/μl; New England Biolabs, Ipswich, Mass.) or p42 mitogen-activated protein kinase (MAPK; 0.5 U/μl; New England Biolabs, Ipswich, Mass.) in 50 mM Tris, pH 7.5, 10 mM MgCl₂, 0.1 mM EDTA, 2 mM DTT, 0.1% Brij 35, ATP 200 μM for 2 hours at 30° C. followed by heat inactivation at 95° C. for 5 minutes. Samples were diluted in SDS-sample buffer and 100 ng of each tau protein was loaded on a separate lane on SDS-polyacrylamide gels for immunoblot analysis.
(§2) To determine the specificity of these monoclonal antibodies, full-length WT, S396A and 5404A 2N/4R human tau were in vitro phosphorylated with known tau kinases (p42 MAPK or GSK3β) and used these tau proteins for immunoblotting analysis (FIG. 1).
(In general: Immunoblotting shows a protein as a band on a membrane.)

Assay [2] deals with T2, full-length S404A 2N/4R human tau phosphorylated in vitro with GSK3β (human, UniProt P10636 2-758, phosphorylated in vitro with GSK3β; sites not stated).
T2 construct: Recombinant, E. coli BL21; also called S404A tau; 5404A
Described as above. How it is done: as §1, §2

Assay [3] addresses T3, T205A 0N/3R human tau phosphorylated in vitro with p42 MAPK or GSK3β (human, UniProt P10636 2-758, phosphorylated in vitro with p42 MAPK or with GSK3β; sites not stated).
T3 construct: Two preparations, one for each kinase; also called phosphorylated T205A tau
Description: immunoblot, recombinant 0N/3R tau phosphorylated in vitro. Here is the method:
(§3) WT, S199A, 5202A and T205A 0N/3R tau (mutants numbered according to 2N/4R human tau) were incubated with p42 MAPK or GSK3β or without any kinase as described in “Material and Methods”. […] The mobilities of molecular mass markers are shown on the left.
as §1
(§4) To determine the specificity of these monoclonal antibodies, WT, S199A, 5202A and T205A 0N/3R human tau (mutations numbered according to the sequence of 2N/4R human tau) were phosphorylated with p42 MAPK or GSK3β and immunoblotting analysis was performed (FIG. 3).

For assay [4], the target named is T4, WT 0N/3R human tau phosphorylated in vitro with p42 MAPK or GSK3β (human, UniProt P10636 2-758, phosphorylated in vitro with p42 MAPK or with GSK3β; T205 (2N/4R numbering) phosphorylated by both, other sites not stated).
T4 construct: recombinant, E. coli BL21; also called phosphorylated tau
Description: immunoblot, recombinant 0N/3R tau. Here is the method: as §3, §1, §4

In assay [5] the target is T5, WT 0N/3R human tau, non-phosphorylated (incubated without any kinase) (human, UniProt P10636 2-758).
T5 construct: Recombinant, E. coli BL21; also called non-phosphorylated tau
Description: immunoblot, recombinant 0N/3R tau. Here is the method:
as §3, §1, §4

Assay [6] concerns the target T6, phosphopeptide DRSGYSpSPGpSPGpTPGSRSR (p193-211) (human, phosphoserine at residues 7 and 10 and phosphothreonine at 13 (S199, S202, T205 of 2N/4R tau); C residue added at the carboxy-terminus).
T6 construct: Unconjugated synthetic peptide coated on ELISA plates; also called tau peptide p193-211
T6 peptide: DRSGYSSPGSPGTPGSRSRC
Description: ELISA, hybridoma medium on plates coated with the unconjugated immunising peptide.

T3 sequence (P10636 other isoform, or with tags, fused parts or gaps T205A T205A limits assumed): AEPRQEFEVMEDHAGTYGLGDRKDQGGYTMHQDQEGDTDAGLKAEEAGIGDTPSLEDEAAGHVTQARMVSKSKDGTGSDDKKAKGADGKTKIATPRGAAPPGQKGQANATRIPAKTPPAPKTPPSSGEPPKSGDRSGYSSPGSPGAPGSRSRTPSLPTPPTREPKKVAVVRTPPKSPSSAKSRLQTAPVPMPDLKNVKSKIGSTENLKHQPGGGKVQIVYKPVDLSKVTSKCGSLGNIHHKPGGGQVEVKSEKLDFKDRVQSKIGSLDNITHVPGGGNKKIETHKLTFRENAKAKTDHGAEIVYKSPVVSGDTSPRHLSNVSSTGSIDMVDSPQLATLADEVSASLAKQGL
T1 sequence (P10636 other isoform, or with tags, fused parts or gaps S396A S396A limits assumed): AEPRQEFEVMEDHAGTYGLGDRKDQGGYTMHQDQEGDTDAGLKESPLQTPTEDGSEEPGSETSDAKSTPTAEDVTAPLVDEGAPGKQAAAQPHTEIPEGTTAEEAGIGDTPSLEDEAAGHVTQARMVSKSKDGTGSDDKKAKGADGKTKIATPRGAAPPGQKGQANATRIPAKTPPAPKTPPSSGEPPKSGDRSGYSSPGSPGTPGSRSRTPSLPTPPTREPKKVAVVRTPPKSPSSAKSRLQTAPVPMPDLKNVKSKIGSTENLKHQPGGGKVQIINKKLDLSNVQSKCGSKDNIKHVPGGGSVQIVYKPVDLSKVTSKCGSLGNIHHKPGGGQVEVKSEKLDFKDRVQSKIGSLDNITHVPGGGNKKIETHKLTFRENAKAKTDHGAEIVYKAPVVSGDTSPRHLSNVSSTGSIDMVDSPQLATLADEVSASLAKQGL
T2 sequence (P10636 other isoform, or with tags, fused parts or gaps S404A S404A limits assumed): as the sequence (P10636 other isoform, or with tags, fused parts or gaps S396A S396A limits assumed) above, with A395S, S403A counted along it
T4 sequence (P10636 other isoform, or with tags, fused parts or gaps limits assumed): as the sequence (P10636 other isoform, or with tags, fused parts or gaps T205A T205A limits assumed) above, with A146T counted along it
T5 sequence (P10636 other isoform, or with tags, fused parts or gaps limits assumed): as the sequence (P10636 other isoform, or with tags, fused parts or gaps T205A T205A limits assumed) above, with A146T counted along it

B1: PHF15 (antibody, V domains shown)
VH: EVQLVESGGGSVKPGGSLKLSCAASGFTFSSYALSWVRQTPEKRLEWVASITSGGSYTYFPDSVKGRFTISRDNAKNTLYLQMSSLRSEDTAMYYCTRPGNYDGAWCAYWGQGTLVTVSS
VL: DILLTQSPAILSVSPGERDSFSCRASQNIGTSIHWYQQRTNGSPRLLIKYASESISGIPSRFSGSGSGTDFTLSVNSVESEDVADYYCQQTKTWPTTFGAGTKLDLK
Turning to B1, the binding result in assay [1] and in assay [2] was “no binding” throughout.

B2: PHF2 (antibody, V domains shown)
VH: B1 VH with L34M, S53R, A75T, N77D, P99Q, A108D, S120A
VL: DILLTQSPAILSVSPGERVSFSCRASQNIGTSIHWYQQRTNGSPRLLIKYTSESISGIPSRFGGSGSGTDFTLSVNGVESEDVADYYCQQTKTWPTTFGAGTKLELKR
For the molecule B2, the binding result in assay [1] and in assay [2] was “no binding” each time.

B3: 6G12 (antibody, V domains shown)
VH: EVNLEESGGGLVQPGGSMKLSCVASGFTFSDYWMNWVRQSPEKGLEWVAEIRLKSDNFATHYAESVKGRFTISRDDSKSSVYLQTNNLRAEDTGIYYCTLMRGDYGAEFAYWGQGTLAIVSA
VL: DIVMSQSPSSLAVSVGEKVTLTCKSSRSLLYRGNQENFLAWYQQKPGQSPKLLIYWASTRESGVPDRFTGSGSGTDFTLTINSVKAEDLAVYYCQQYYTYPYTFGGGTKLEIKR
As to B3, in assay [3], the binding result is “no binding”.

B4: 10G12 (antibody, V domains shown)
VH: EVKLEESGGGLVQPGGSMKLSCVASGFTFSNYWMNWVRQSPETGLEWVAEIRLKSYNYATHYAESVTGRFTISRDDSKNRVYLQMNNLGPDDTGIYYCTTGGAYHPFDYWGQGTTLTVSS
VL: B3 VL with L21M, R27Q, G33N, E36K, F38Y, N82S
notes: also called 10G2
For B4, the binding result in assay [3] is recorded as “no binding”.

B5: 2D1 (antibody, V domains shown)
VH: EVKLVESGGGLVQPGGSLRLSCATSGFTFTDFSMNWVRQPPGKALEWLGCVRDRAEGYTTEYSASVQGRFTISRDNSQSILYLQMNTLRPEDSATYYCARERAFAYWGQGTLVTVSA
VL: DIVMSQSPSSLAVSAGEKVTMSCKSSQSLLYSRNQKNYLAWYQQRPGQSPKLLIYWASSRESGVSDRFTGSGSGTDFTLTISSVKADDLAVYYCQQYYKSPLTFGAGTKLELKR
notes: also called clone 2D1
As to B5, the binding result in assay [4], in assay [5] and in assay [6] was “binds” each time.

B6: 7F2 (antibody, V domains shown)
VH: B4 VH with E1Q, K3Q, E5Q, E6Q, G9A, G10E
VL: EIVLTQSIPSLTVSAGERVTINCKSNQNLLWSGNQRYCLVWHQWKPGQTPTPLITWTSDRYSGVPDRFIGGGSVTDFTLTISSVQAEDVALYFCQHHLHIPPWTFGGGTKLEIKR
notes: also called clone 7F2
For B6, the binding result in assay [3] is recorded as “no binding”.

The values above are taken from patent publication US20200299370A1 (UNIVERSITY OF FLORIDA RESEARCH FOUNDATION, published 2020).
